Reference: PMC10215022

Key:
[1] = target: SARS-CoV-2 Omicron (B.1.1.529) spike protein RBD, His-tagged (SARS-CoV-2 Omicron (B.1.1.529)) (UniProt P0DTC2); assay: SPR
[2] = target: SARS-CoV-2 Delta (B.1.617.2) spike protein RBD, His-tagged (SARS-CoV-2 Delta (B.1.617.2)) (UniProt P0DTC2); assay: SPR

decavalent IgM ACE2 decoy (from UniProt Q9BYF1;P01591) (Fc fusion)
Kd [1]: 2.4 nM
koff [1]: 0.00036 s⁻¹
kon [1]: 150000 M⁻¹ s⁻¹
Kd [2]: 0.49 nM
koff [2]: 0.00013 s⁻¹
kon [2]: 260000 M⁻¹ s⁻¹
